Experiment [1] addresses T1, AP5 ζ/σ5 subcomplex, purified (mouse GST-AP5ζ-Twin-Strep with human AP5σ5) (mouse | human, UniProt Q3U829 1-807; Q9NUS5 1-200).
T1 sequence (looked up) 1: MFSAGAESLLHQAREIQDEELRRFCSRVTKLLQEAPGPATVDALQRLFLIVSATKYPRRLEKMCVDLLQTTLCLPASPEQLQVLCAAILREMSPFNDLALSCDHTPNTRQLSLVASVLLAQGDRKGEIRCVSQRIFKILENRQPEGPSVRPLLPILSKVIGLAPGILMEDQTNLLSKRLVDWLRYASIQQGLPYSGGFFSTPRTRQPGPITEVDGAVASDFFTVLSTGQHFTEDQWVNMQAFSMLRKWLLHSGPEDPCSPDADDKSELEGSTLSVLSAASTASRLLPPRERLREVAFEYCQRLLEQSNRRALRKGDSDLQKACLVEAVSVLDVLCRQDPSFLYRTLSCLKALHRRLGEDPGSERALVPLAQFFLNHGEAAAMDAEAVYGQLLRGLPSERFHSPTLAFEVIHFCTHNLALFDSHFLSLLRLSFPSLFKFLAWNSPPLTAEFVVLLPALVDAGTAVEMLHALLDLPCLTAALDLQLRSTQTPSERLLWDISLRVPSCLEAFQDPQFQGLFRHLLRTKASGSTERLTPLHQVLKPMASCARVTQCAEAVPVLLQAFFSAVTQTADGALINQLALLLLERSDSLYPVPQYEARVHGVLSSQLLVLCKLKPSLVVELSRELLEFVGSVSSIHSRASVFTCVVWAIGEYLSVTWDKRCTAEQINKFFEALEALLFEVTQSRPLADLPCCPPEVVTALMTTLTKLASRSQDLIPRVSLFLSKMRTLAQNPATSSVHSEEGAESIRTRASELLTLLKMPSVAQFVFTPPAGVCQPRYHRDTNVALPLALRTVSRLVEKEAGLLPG
T1 sequence (looked up) 2: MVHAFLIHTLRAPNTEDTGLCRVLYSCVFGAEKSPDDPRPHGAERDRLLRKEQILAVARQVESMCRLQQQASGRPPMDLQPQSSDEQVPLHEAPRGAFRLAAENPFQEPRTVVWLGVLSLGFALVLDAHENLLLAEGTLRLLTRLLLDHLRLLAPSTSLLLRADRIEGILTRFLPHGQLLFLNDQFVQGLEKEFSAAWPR
In words: SEC. Background: SEC sorts molecules by how far they enter the pores of the column.

In experiment [2] the target is T2, AP5 β5^trunk/µ5 subcomplex, purified (human GST-AP5β5(1-632)-Twin-Strep with mouse AP5μ5) (human | mouse, UniProt Q2VPB7 1-632; Q8BJ63 1-490).
T2 sequence (looked up) 1: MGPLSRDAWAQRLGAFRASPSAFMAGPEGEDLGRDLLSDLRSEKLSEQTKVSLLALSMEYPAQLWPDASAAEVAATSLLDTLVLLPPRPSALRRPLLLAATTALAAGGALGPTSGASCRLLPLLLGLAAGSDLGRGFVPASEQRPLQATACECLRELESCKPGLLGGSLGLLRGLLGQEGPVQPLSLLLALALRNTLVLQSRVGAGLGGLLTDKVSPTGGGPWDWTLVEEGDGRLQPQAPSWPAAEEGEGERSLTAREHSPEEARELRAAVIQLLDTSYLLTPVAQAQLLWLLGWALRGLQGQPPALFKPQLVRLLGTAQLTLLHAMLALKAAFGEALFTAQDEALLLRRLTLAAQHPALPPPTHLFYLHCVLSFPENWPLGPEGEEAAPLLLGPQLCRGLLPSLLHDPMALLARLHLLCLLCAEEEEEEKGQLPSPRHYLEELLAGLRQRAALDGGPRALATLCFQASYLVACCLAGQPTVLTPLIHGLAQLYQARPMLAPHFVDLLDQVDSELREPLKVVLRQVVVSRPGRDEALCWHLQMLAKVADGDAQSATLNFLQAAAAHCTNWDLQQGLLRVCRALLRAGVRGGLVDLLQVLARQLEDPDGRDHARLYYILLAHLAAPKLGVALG
T2 sequence (looked up) 2: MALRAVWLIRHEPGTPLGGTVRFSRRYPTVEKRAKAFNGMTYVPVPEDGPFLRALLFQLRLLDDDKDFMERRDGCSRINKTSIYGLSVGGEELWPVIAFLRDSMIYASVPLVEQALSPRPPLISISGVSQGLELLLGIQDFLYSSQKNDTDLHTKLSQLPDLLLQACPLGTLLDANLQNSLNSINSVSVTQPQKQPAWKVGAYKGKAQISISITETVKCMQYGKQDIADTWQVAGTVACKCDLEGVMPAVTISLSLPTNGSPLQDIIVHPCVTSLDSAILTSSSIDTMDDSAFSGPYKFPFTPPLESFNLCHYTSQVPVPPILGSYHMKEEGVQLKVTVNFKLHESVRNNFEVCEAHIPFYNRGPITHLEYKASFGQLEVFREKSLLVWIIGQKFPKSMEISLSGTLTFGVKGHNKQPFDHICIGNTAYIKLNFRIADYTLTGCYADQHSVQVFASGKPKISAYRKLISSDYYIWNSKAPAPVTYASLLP
In words: SEC.

The text below walks through data of publication doi:10.1101/2024.06.14.598999 (bioRxiv, 2024).

B1: SPG11^WD40-hairpin (human SPG11 residues 1-525) as incubated with the AP5 subcomplexes for size exclusion chromatography (domain or fragment, UniProt Q96JI7 1-525, looked up)
chain: MAAEEGVASAASAGGSWGTAAMGRVLPMLLVPVPAEAMGQLGSRAQLRTQPEALGSLTAAGSLQVLSLTPGSRGGGRCCLEGPFWHFLWEDSRNSSTPTEKPKLLALGENYELLIYEFNLKDGRCDATILYSCSREALQKLIDDQDISISLLSLRILSFHNNTSLLFINKCVILHIIFPERDAAIRVLNCFTLPLPAQAVDMIIDTQLCRGILFVLSSLGWIYIFDVVDGTYVAHVDLALHKEDMCNEQQQEPAKISSFTSLKVSQDLDVAVIVSSSNSAVALNLNLYFRQHPGHLLCERILEDLPIQGPKGVDEDDPVNSAYNMKLAKFSFQIDRSWKAQLSSLNETIKNSKLEVSCCAPWFQDILHLESPESGNHSTSVQSWAFIPQDIMHGQYNVLQKDHAKTSDPGRSWKIMHISEQEEPIELKCVSVTGFTALFTWEVERMGYTITLWDLETQGMQCFSLGTKCIPVDSSGDQQLCFVLTENGLSLILFGLTQEEFLNRLMIHGSASTVDTLCHLNGWGR
Regarding B1, the binding result in experiment [1] and in experiment [2] was “binds” each time.
